Reference: patent US10801046B2, “Methods and materials for biosynthesizing multifunctional, multivariate molecules via carbon chain modification” (INVISTA NORTH AMERICA S.A.R.L., priority 2016, dated 2020)

Assays:
[1] = test system: heptanedioyl-ACP methyl ester; format: cell-based, Escherichia coli; details: for monomethyl heptanedioate production: bioH deletion strain, TB supplemented with 1 mM IPTG and 2 mM L-rhamnose; for impact on monomethyl heptanedioate production: 146 thioesterases screened; for activity toward heptanedioyl-ACP methyl ester in vivo: top 150 hits screened in vivo
[2] = In vivo aminotransferase activity screening, 7-aminoheptanoate by LC-MS; format: cell-based, Escherichia coli; details: in vivo conversion of 7-oxoheptanoate to 7-aminoheptanoate, 120 aminotransferases screened
Procedure: A 165-member aminotransferase library from Twist on IPTG-inducible T7- pUC expression vectors was co-transformed into T7 Express lysY/Iq with a constitutive expression pJ23150-derived plasmid bearing the phosphopantetheinyl transferase sfp from Bacillus subtilis, CAR_Srot from Invista and BioC from Serratia marcescens (UniprotKB Accession No. P36571 (SEQ ID NO: 165)). The resulting strains were incubated in 0.5 ml of rich media (terrific broth or LB containing 8% glycerol) supplemented with 0.4 mM IPTG and received 1 g/L monomethyl heptanedioate, 1 g/L heptanedioate, or no organic acid addition, depending on the experiment. Following incubation overnight at 37° C. in a shaking incubator, cells were pelleted and the supernatants were analyzed using LC-MS for 7-aminoheptanoate or monomethyl 7-aminoheptanoate. A Vibrio fluvialis aminotransferase (UniProtKB Accession No. F2XBU9 (SEQ ID NO: 128)) was used as a positive control.

| Molecule | activity toward heptanedioyl-ACP methyl ester in vivo [1] | also measured |
| --- | --- | --- |
| FatB2: plant thioesterase FatB2 from Cuphea hookeriana, fatty acid acyl-ACP thioesterase, positive control (protein, listed as Cuphea hookeriana) MVAAAASSAFFPVPAPGASPKPGKFGNWPSSLSPSFKPKSIPNGGFQVKANDSAHPKANGSAVSLKSGSLNTQEDTSSSPPPRTFLHQLPDWSRLLTAITTVFVKSKRPDMHDRKSKRPDMLVDSFGLESTVQDGLVFRQSFSIRSYEIGTDRTASIETLMNHLQETSLNHCKSTGILLDGFGRTLEMCKRDLIWVVIKMQIKVNRYPAWGDTVEINTRFSRLGKIGMGRDWLISDCNTGEILVRATSAYAMMNQKTRRLSKLPYEVHQEIVPLFVDSPVIEDSDLKVHKFKVKTGDSIQKGLTPGWNDLDVNQHVSNVKYIGWILESMPTEVLETQELCSLALEYRRECGRDSVLESVTAMDPSKVGVRSQYQHLLRLEDGTAIVNGATEWRPKNAGANGAISTGKTSNGNSVS |  | monomethyl heptanedioate production higher than the negative control [1]: about 10 mg/L; monomethyl heptanedioate production [1]: approximately 14 mg/L |
| SEQ ID NO: 102: Peptoniphilus harei ACS-146-V-Sch2b thioesterase (protein, Peptoniphilus harei ACS-146-V-Sch2b, Peptoniphilus harei ACS-146-V-Sch2b thioesterase) MKIFCKEYEVMNFLSSDGDLKLNHLVSYLIETSNYQSIDLGLSNEKLLDMGYTWMIYKWKIKINRYPRSYEKIKIKTWASGFKNINAFREFEVYCQGEKIIEASAIFLLIDVEKRKAIKIPEVLAEIYGNNGNRIFKSIERVNEPSELEIANRFSYKILRRDLDFNNHVNNSVYLELIYEAVTDEYTHVKFKDINVNYINELKLGDEIVIDFYREEDRFYFFFKSKDQSQIYARICGVSETPIS | showed activity toward heptanedioyl-ACP methyl ester | impact on monomethyl heptanedioate production [1]: promising |
| SEQ ID NO: 74: Cellulosilyticum lentocellum thioesterase (protein, listed as Cellulosilyticum lentocellum, Cellulosilyticum lentocellum (strain ATCC 49066 / DSM 5427 / NCIMB 11756 / RHM5), Cellulosilyticum lentocellum thioesterase) MSRLKENYQVDFDVVDFTGKLSINGLCSYMQTVAAKHATKLGINFYKNGEKPTYYWILSRVKYEIDTYPRWEDLVSLETYPGGYEKLFAVRLFDLTDEKGELIGRITGDYLLMDAEKGRPVRIKGATGPLSVLDFPYEGRKIDKIEVPEVVLREQIRKAYYSELDLNGHMNNAHYIRWTVDMLPLEVLKENEIVSLQINYNASITYGVETKLIIGKNEAGNYLVAGNSLDDSVNYFTSEIILRKNK | showed activity toward heptanedioyl-ACP methyl ester | impact on monomethyl heptanedioate production [1]: promising |
| SEQ ID NO: 72: Terrisporobacter othiniensis thioesterase (protein, listed as Terrisporobacter othiniensis) MERVFTKEYEVTYRDTDARGECFLTSYMNFMADCGLSQDEKYGFVIADMVKENHTWMLVDYEITIYKYVKYKEKLRAITYIEGMNKFYAVRYFKIYNDKDDLILEGKTLVILVDSKKRRPLSIPDEHYKAYGVEEKTPTIGRNKLKLSKCKNVDYKKEFNVRYSDIDLNLHVGNVTYLGWILETIPFEIMTDYKIYSVKIKYQKELTYGDKVSVKTEMEYNDNNISAYHEIINESEEVVALLETHWNEI | showed activity toward heptanedioyl-ACP methyl ester | impact on monomethyl heptanedioate production [1]: promising; monomethyl heptanedioate production [1]: 48 mg/L |
| SEQ ID NO: 78: Opitutus terrae thioesterase (protein, Opitutus terrae (strain DSM 11246 / JCM 15787 / PB90-1), Opitutus terrae thioesterase) MPEKLTLNASVLYADVDRTEVLLLRGVFKFLQEAAITHANQFDLGSRAMATRGESWVLNRMAVAVHRYPRYEETMRIETWSRGIKGFKGYREFRVFDAQGAPLFSGSSLWLYVNMRTKSIIRVPAELAAEFPKRDDGAFFPELESLEFAPPAADARRVPIAIRYSDVDVNAHVNNTAYLDFLQEALARAGLSPRPQSIRIKYARAIPAEAETVRVAIEPRGTGAAFAIEDHDTIFAIGEVD | showed activity toward heptanedioyl-ACP methyl ester |  |
| SEQ ID NO: 58: Spongiibacter sp. IMCC21906 thioesterase (protein, Spongiibacter sp. IMCC21906, Spongiibacter sp; IMCC21906 thioesterase) MTHFIQFLPGRISPRRALALLLVLLLQGALPRIVLADTILLLGDSLSAAYKIPVESSWPALLQDSIDEEHSLKNASVSGETTAGGLARLPALLAKNNTDILIIELGGNDGLRGYPLVRIRENIEKMIKLGQKKGAKVVLLGMHIPPNYGRRYADGFHNIYLSLAEENNTALLPFLLDGVAKQPRLMQGDGIHPTAEAQPIILQNVLSVLRPLLDSTN | showed activity toward heptanedioyl-ACP methyl ester |  |
| SEQ ID NO: 79: Thermincola potens thioesterase (protein, Thermincola potens (strain JR)) MEPYQTSIPVHYYEINNHRQASPVAILNYLEEAAIRHSESVGWGIEKLLANSRGWLLTRWSLHMQKYPQWGETVNIETWPYKFERFYATREFRISDREGRVLGAATTLWVFFDLRRKRPVRIPPDIYDAYGTGAERMVADEFADLPVVDEPEIKLEFRVRLSDIDTNDHVNNTKYVEWLLETVPLSVHNGFLLSSVEIAYKKETSYGSTVLCGIKETEAGERQTTFLHIILDKDSGTELARARTVWQKRSKI | showed activity toward heptanedioyl-ACP methyl ester |  |
| SEQ ID NO: 68: Agathobacter rectalis DSM 17629 thioesterase (protein, Eubacterium rectale DSM 17629, Agathobacter rectalis DSM 17629 thioesterase) MAFSFDSRIRYSEVDSSCRLSLTGLTNYFQDCSVFHSQSHDVGIRFLADNHIAWVLSSWQICINRLPLLNEQVKISTWAYGMKAFYGYRNFTLEDAGGSTLAYANSVWVLVDTRTGRPVKVPQEFADTYGLEPQLEMECAKRKLHIPDDMEKKGEIEVPQFFIDSNHHMNNEKYVMLAQQLLPNDFEISELRVEYRKEAKLGDTVISYVKYTSKSVTVVLADTDKKPYSVVEFLSKPVPGK | showed activity toward heptanedioyl-ACP methyl ester |  |
| SEQ ID NO: 80: Clostridium sp. CAG:306 thioesterase (protein, Clostridium sp. CAG:306, Clostridium sp; CAG:306 thioesterase) MLFTKEYEIKYYEQNVNGDLKESALLNFLQDIATLSAESLGFGPSFVFANNYAWVVLKYHIELFAPLRNLSSIVIKTEPRGIAKLYAYRDFELYTKDGQCIGKAVSTWVLIDICTRKLLNTQKILADFMAPYQKRETDLVYEKIDSPDELMYQEVFDVRFDDIDVNRHANNSNYIVWALETLPVDFRLKHSPKTIDIKYKKEIGINSRVLSEAQQILTDGNVQTLHVIKDEQNAQDLTSLKIVWQ | showed activity toward heptanedioyl-ACP methyl ester |  |
| SEQ ID NO: 81: Citrobacter rodentium thioesterase (protein, Citrobacter rodentium (strain ICC168), Citrobacter rodentium thioesterase) MVNFNNVFRWHLPFLFLILFTCRSVAADTLLILGDSLSAGYRMSASAAWPALLNDKWHSKTTIVNASISGDTSGQALARLPALLKQHQPRWVLVELGGNDGLRGFSPAQTEQTLRTILQNVKAASAEPLLMQIRLPANYGRRYNETFSAIYPKLASEFDIPLLPFFMEEVYLKPQWMQDDGIHPNRDAQPFIADWMAKQLSPLVKYES | showed activity toward heptanedioyl-ACP methyl ester |  |
| SEQ ID NO: 77: Spirochaeta smaragdinae thioesterase (protein, listed as Sediminispirochaeta smaragdinae, Sediminispirochaeta smaragdinae (strain DSM 11293 / JCM 15392 / SEBR 4228), Spirochaeta smaragdinae thioesterase) MKQVSRYTTEHTVMYSETDARGVLSLPSFFALFQEAALLHAEELGFGETYSKQENLMWVLSRLLLEIDAFPKHRDRIRLSTWPKQPQGPFAIRDYILESEEGTVCARATSSWLLLKLDTMRPIRPQTIFANLSMEGIGLAVEGTAPKISEIDNDSKQEMEVTARYSDLDQNNHVNNTRYVRWFLDCYTPEEITTSGNLHFAINYLQAASYSDKLLLRRYDTESDSSVYGYLEDGTPSFSARIERKSD | showed activity toward heptanedioyl-ACP methyl ester |  |
| SEQ ID NO: 122: Mesorhizobium sp. LC103 aminotransferase (protein, Mesorhizobium sp. LC103, Mesorhizobium sp; LC103 aminotransferase) MLDKPPLSNLQARDVASVLHPYTPLHKLETMGPLVIERGEGVYVYDTQGKAYIEGMSGLWCAGLGFGDEEMIDAATEQLRTLPYYHLFGAKGTESAIELAEKLKEIAPVPISKVFFTSSGSEANDTQVKLAWYLNNALGRPNKKKIISRQKAYHGVTIMSASLTGLPYNHIGWDLPVDRVLHTDCPHYYRFGQEGESEAEFVNRMVKSLRDLIEREGPDTIAAMIAEPVMGAGGVIVPPEGYYPAIQAVLDEHDIIMISDEVINGFGRTGNWWGSQTLGMTPKTISAAKQMTSAYAPLGAVMVPEDIYQAYVSHSEKIGTFGHGFTYGGHPLGCALGVKAIEIYQKRDILGHVRSLSPQFERRMRKLTEHPLVGEARYCGLVGGVEIVADKKTKRPFDPKVGVGPQCAKFVEERGAILRAIGDTIALCPPMIIKEDELDELFDRLEKALDDTEAWVAKEGLRAL |  | 7-aminoheptanoate yield compared to the positive control (F2XBU9) [2]: higher 7-aminoheptanoate yields |
